Consider five molecules from patent US20240262919A1 (SHANGHAITECH UNIVERSITY, published 2024).

Where a chain is given by its changes, count along the chain named.

Test [1] addresses T1, mouse IL-18Rβ (mouse, UniProt Q9Z2B1 20-356, limits assumed).
T1 construct: also called Mouse receptor; mouse ortholog
T1 sequence (looked up): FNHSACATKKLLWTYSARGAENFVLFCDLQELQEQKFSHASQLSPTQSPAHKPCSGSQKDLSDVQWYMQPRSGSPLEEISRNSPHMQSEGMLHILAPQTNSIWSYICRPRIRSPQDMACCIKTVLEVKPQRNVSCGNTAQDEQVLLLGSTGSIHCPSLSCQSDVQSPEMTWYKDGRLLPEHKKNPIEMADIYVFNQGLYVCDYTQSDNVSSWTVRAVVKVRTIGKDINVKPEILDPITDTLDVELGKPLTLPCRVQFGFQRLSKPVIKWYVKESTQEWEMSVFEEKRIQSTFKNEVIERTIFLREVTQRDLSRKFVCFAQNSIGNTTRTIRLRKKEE
Kind of test: SPR (Table 5 title), Fab on mouse receptor.

Test [2] addresses T2, human IL-18Rβ ECD Fc fusion (118-AP-100, R&D Systems) (human, UniProt O95256 20-356).
T2 construct: Bought protein; also called hIL-18Rβ; recombinant human IL-18Rb; not shown: Fc tag of the bought fusion protein, not described
T2 sequence: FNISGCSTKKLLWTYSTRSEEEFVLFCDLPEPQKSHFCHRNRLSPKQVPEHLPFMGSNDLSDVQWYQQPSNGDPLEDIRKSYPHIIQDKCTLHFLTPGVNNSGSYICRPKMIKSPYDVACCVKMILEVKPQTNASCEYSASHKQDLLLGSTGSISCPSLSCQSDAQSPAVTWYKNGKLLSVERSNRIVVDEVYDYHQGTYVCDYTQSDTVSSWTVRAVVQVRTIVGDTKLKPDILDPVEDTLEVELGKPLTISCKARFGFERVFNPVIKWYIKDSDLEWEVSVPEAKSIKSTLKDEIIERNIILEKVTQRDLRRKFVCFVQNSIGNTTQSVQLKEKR
The test can be described thus: competitive ELISA: signal on immobilised receptor after incubation with a two-fold dilution series of soluble hIL-18Rβ; the concentration axis is the soluble receptor; y axis printed 'Inhibition (%)'. (In general: In an ELISA, binding on a coated surface is turned into a signal by an enzyme label.)

For test [3], the target named is T2, human IL-18Rβ ECD Fc fusion …. Kind of test: biolayer interferometry (BLI) after legend paragraph 36; drawn table, head ka (10^4 M^-1 s^-1), Human receptor.
Test [4] has the same target. Kind of test: direct binding ELISA on immobilised human IL-18Rβ, OD 450 against concentration; panel title and axes say IgG, the key and legend paragraph 36 say Fab.
Test [5] has the same target. Kind of test: biolayer interferometry (BLI) after legend paragraph 36; drawn table, head KD (nM), Human receptor. (BLI is a label-free optical method that tracks binding on a fibre tip over time.)
Test [6] shares this target. The test can be described thus: multipoint direct binding ELISA (drawn table, column EC50 (nM)).
For test [7] the target is unchanged. The test can be described thus: biolayer interferometry (BLI) after legend paragraph 36; drawn table, head kd (10^-4 s^-1), Human receptor.
For test [8] the target is unchanged. The test can be described thus: SPR (Table 5 title), Fab on human receptor.
Test [9] has the same target. The test can be described thus: competitive binding ELISA with soluble receptor (drawn table, column IC50 (nM)).
Test [10] concerns the target T3, human IL-18Rα ECD Fc fusion (816-LR-100; R&D Systems) (human, UniProt Q13478 22-329).
T3 construct: extracellular domain; Bought protein; also called Human receptor; not shown: Fc tag of the bought fusion protein, not described
T3 sequence (looked up): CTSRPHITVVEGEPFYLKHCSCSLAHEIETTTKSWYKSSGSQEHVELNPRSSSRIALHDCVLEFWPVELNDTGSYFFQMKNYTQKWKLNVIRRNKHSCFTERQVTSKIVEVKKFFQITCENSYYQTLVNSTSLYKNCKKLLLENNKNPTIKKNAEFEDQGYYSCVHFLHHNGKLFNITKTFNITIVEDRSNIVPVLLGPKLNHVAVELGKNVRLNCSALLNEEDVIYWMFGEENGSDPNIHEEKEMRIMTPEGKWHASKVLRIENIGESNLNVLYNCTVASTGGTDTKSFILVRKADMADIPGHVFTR
Kind of test: competitive binding ELISA with soluble receptor (drawn table, column IC50 (nM)); the cell equals that of row A3.

For test [11], the target named is T3, human IL-18Rα ECD Fc fusion …. The test can be described thus: SPR, Fab on human receptor.
Test [12] shares this target. The test can be described thus: direct binding ELISA on immobilised human IL-18Rα (target after legend paragraph 36 and the table of panel C), OD 450 against concentration; panel title and axes say IgG, the key and legend say Fab.
Test [13] shares this target. Kind of test: multipoint direct binding ELISA (drawn table, column EC50 (nM)); the cell equals that of row A3.
Test [14] has the same target. Kind of test: competitive ELISA with a dilution series of soluble receptor; the axis is printed 'Soluble hIL18Rβ concentration (nM)', but legend paragraph 36 and the table of panel C give IL-18Rα for this trace; the competitor is the immobilised receptor; y axis printed 'Inhibition (%)'.

B1: Fab 3144 (Fab)
heavy: EVQLVESGGGLVQPGGSLRLSCAASGFNLSYYSIHWVRQAPGKGLEWVASIYSYSGYTSYADSVKGRFTISADTSKNTAYLQMNSLRAEDTAVYYCARSSAMDYWGQGTLVTVSSASTKGPSVFPLAPSSKSTSGGTAALGCLVKDYFPEPVTVSWNSGALTSGVHTFPAVLQSSGLYSLSSVVTVPSSSLGTQTYICNVNHKPSNTKVDKKVEPKSCDKTHT
light: DIQMTQSPSSLSASVGDRVTITCRASQSVSSAVAWYQQKPGKAPKLLIYSASSLYSGVPSRFSGSRSGTDFTLTISSLQPEDFATYYCQQHWWGYPLITFGQGTKVEIKRTVAAPSVFIFPPSDSQLKSGTASVVCLLNNFYPREAKVQWKVDNALQSGNSQESVTEQDSKDSTYSLSSTLTLSKADYEKHKVYACEVTHQGLSSPVTKSFNRGECGGSDYKDDDDK
notes: also called F3144
With B1, the figures for the Kd in test [1], in test [5] and in [8] were 0.0129 µM, 0.0064 µM and 0.0018 µM, respectively. The figures for the dissociation rate constant (koff) in test [1], in test [7] and in [8] were 0.0012 s⁻¹, 0.0011 s⁻¹ and 0.00058 s⁻¹, respectively. Also, the kon was 93000 M⁻¹ s⁻¹ in [1], 170000 M⁻¹ s⁻¹ in test [3] and 320000 M⁻¹ s⁻¹ in [8]. Further, the “IC50 (read off the curve)” value in test [2] was about 0.002 µM. Also, the “EC50 (read off the curve)” value in test [4] was about 0.0004 µM. The molecule further yielded an EC50 in test [6] of 0.016 µM. The IC50 in test [9] was determined as 0.019 µM.

B2: Fab 3131 (Fab)
heavy: EVQLVESGGGLVQPGGSLRLSCAASGFNLYYSSMHWVRQAPGKGLEWVASIYSSYGYTYYADSVKGRFTISADTSKNTAYLQMNSLRAEDTAVYYCARSSFSHGYGWYGLDYWGQGTLVTVSSASTKGPSVFPLAPSSKSTSGGTAALGCLVKDYFPEPVTVSWNSGALTSGVHTFPAVLQSSGLYSLSSVVTVPSSSLGTQTYICNVNHKPSNTKVDKKVEPKSCDKTHT
light: DIQMTQSPSSLSASVGDRVTITCRASQSVSSAVAWYQQKPGKAPKLLIYSASSLYSGVPSRFSGSRSGTDFTLTISSLQPEDFATYYCQQYGYHYAGLITFGQGTKVEIKRTVAAPSVFIFPPSDSQLKSGTASVVCLLNNFYPREAKVQWKVDNALQSGNSQESVTEQDSKDSTYSLSSTLTLSKADYEKHKVYACEVTHQGLSSPVTKSFNRGECGGSDYKDDDDK
notes: also called F3131
As to B2, the Kd in test [1] was found to be 0.0052 µM; in test [5] it was 0.0061 µM; in test [8], 0.0062 µM. Further, the koff is 0.00062 s⁻¹ in test [1], 0.0013 s⁻¹ in test [7] and 0.00127 s⁻¹ in test [8]. Besides, the on-rate constant (kon) in test [1] came to 120000 M⁻¹ s⁻¹; in [3], 210000 M⁻¹ s⁻¹; in test [8], 210000 M⁻¹ s⁻¹. In test [2], the “IC50 (read off the curve)” value lay within 0.001 to 0.002 µM. The “EC50 (read off the curve)” value in test [4] is about 0.0003 µM. In test [6], the EC50 amounted to 0.016 µM. In test [9], this molecule yielded an IC50 of 0.082 µM.

B3: Fab 3132 (Fab)
heavy: B1 heavy with L29I, S33Y, S99A
light: B2 light with Y91H, G92W, Y93W, H94A, Y95S, A96V, G97P, L98P, I99F
notes: also called F3132
As to B3, the “IC50 (read off the curve)” value in test [2] was about 0.009 µM. The molecule also gave a kon in test [3] of 10000 M⁻¹ s⁻¹. In addition, in [4], the “EC50 (read off the curve)” value was about 0.0005 µM. This molecule yielded a Kd in test [5] of 0.133 µM. Moreover, in test [6], the EC50 stood at 0.033 µM. This molecule also returned a koff in test [7] of 0.0013 s⁻¹. In [9], this molecule yielded a half-maximal inhibitory concentration (IC50) of 0.074 µM.

B4: Fab 12 (Fab)
heavy: EVQLVESGGGLVQPGGSLRLSCAASGFNISSSSIHWVRQAPGKGLEWVASISPSYSSTYYADSVKGRFTISADTSKNTAYLQMNSLRAEDTAVYYCARGAFDYWGQGTLVTVSSASTKGPSVFPLAPSSKSTSGGTAALGCLVKDYFPEPVTVSWNSGALTSGVHTFPAVLQSSGLYSLSSVVTVPSSSLGTQTYICNVNHKPSNTKVDKKVEPKSCDKTHT
light: DIQMTQSPSSLSASVGDRVTITCRASQSVSSAVAWYQQKPGKAPKLLIYSASSLYSGVPSRFSGSRSGTDFTLTISSLQPEDFATYYCQQYWHPFTFGQGTKVEIKRTVAAPSVFIFPPSDSQLKSGTASVVCLLNNFYPREAKVQWKVDNALQSGNSQESVTEQDSKDSTYSLSSTLTLSKADYEKHKVYACEVTHQGLSSPVTKSFNRGECGGSDYKDDDDK
notes: Anti-IL-18Rα Fab; also called F12
Take B4: the IC50 in test [10] was 0.105 µM. In test [11], binding was put at a Kd of 0.0019 µM, the koff came out at 0.0002 s⁻¹ and the kon was determined as 110000 M⁻¹ s⁻¹. Further, the “EC50 (read off the curve)” value in [12] was about 0.0008 µM. It took 0.086 µM to reach a half-maximal effect in test [13] (EC50). For the same molecule, the “IC50 (read off the curve)” value in [14] was about 0.02 µM.

B5: Fab A3 (Fab)
heavy: EVQLVESGGGLVQPGGSLRLSCAASGFNLYSSYIHWVRQAPGKGLEWVASIYSSSGYTYYADSVKGRFTISADTSKNTAYLQMNSLRAEDTAVYYCARSVHSYYSSAAYYAMDYWGQGTLVTVSSASTKGPSVFPLAPSSKSTSGGTAALGCLVKDYFPEPVTVSWNSGALTSGVHTFPAVLQSSGLYSLSSVVTVPSSSLGTQTYICNVNHKPSNTKVDKKVEPKSCDKTHT
light: B4 light with Y91S, W92Y, H93F, P94L, F95I
notes: also called FA3
For B5, the figures for the on-rate (kon) in test [3] and in [8] were 51000 M⁻¹ s⁻¹ and 20000 M⁻¹ s⁻¹, respectively. Also, the Kd was determined as 0.03 µM in test [5] and 0.078 µM in test [8]. In addition, it took 0.086 µM to reach a half-maximal effect in test [6] (EC50). For the same molecule, the koff in test [7] is 0.0015 s⁻¹; in test [8] it was 0.0016 s⁻¹. In test [9], this molecule showed an IC50 of 0.105 µM.

The term Kd denotes the concentration at which binding is half-saturated. A word on the koff: it is the first-order rate constant of dissociation. As a reminder, the kon is the rate constant with which the complex forms. Usually EC50 (read off the curve) stands for the midpoint of the concentration-response curve. One may read the EC50 as the concentration giving half of the maximal effect. Usually IC50 stands for the concentration at which inhibition is half-maximal.
